According to paper PMC10648076, “Statistical Improvement of rGILCC 1 and rPOXA 1B Laccases Activity Assay Conditions Supported by Molecular Dynamics” (Molecules, 2023):

Substrate: CCn1c(=NN=c2sc3cc(S(=O)(=O)O)ccc3n2CC)sc2cc(S(=O)(=O)O)ccc21
Experiment: spectrophotometric ABTS oxidation; Michaelis-Menten fit
Type: biochemical, Pleurotus ostreatus
Settings: 100 mM sodium citrate buffer, pH 3.0 ± 0.2, 25 °C, apparent constant, enzyme concentrate
Text: spectrophotometric ABTS oxidation; Michaelis-Menten fit on rPOXA 1B

B1: rPOXA 1B (Pleurotus ostreatus) (protein)
chain: SIGPRGTLNIANKVIQPDGFYRSTVLAGGSYPGPLIKGKTGDRFQINVVNKLADTSMPVDTSIHWHGLFVKGHNWADGPAMVTQCPIVPGHSFLYDFEVPDQAGTFWYHSHLGTQYCDGLRGPLVVYSKNDPHKRLYDVDDESTVLTVGDWYHAPSLSLTGVPHPDSTLFNGLGRSLNGPASPLYVMNVVKGKRYRIRLINTSCDSNYQFSIDGHTFTVIEADGENTQPLQVDQVQIFAGQRYSLVLNANQAVGNYWIRANPNSGDPGFENQMNSAILRYKGARSIDPTTPEQNATNPLHEYNLRPLIKKPAPGKPFPGGADHNINLNFAFDPATALFTANNHTFVPPTVPVLLQILSGTRDAHDLAPAGSIYDIKLGDVVEITMPALVFAGPHPIHLHGHTFAVVRSAGSSTYNYENPVRRDVVSIGDDPTDNVTIRFVADNAGPWFLHCHIDWHLDLGFAVVFAEGVNQTAAANPVPEAWNNLCPIYNSSNPSKLLMGTNAIGRLPAPLKA
notes: secreted from Pichia pastoris/pGAPZαA-LaccPost-Stop (Clone 1); recombinant culture concentrate, not purified
For B1, the Km was 37.2 µM and the Vmax was 10.5 µM/min.
